Measurements as given in US20190161525A1 (NATIONAL CHENG KUNG UNIVERSITY, published 2019).

Molecular target: the molecule itself
Assay: self-polymerization in PBS, reducing SDS-PAGE and Western blot

B1: Zfra1-31 (full-length zinc finger-like protein that regulates apoptosis, synthetic peptide) (peptide)
peptide: MSSRRSSSCKYCEQDFRAHTQKNAATPFLAN
notes: also called Zfra peptide; full-length Zfra
Question: Does B1 bind?
Answer: Result: binds
